Measurements published in paper PMC7105138, “Modeling cancer genomic data in yeast reveals selection against ATM function during tumorigenesis” (PLoS Genetics, 2020).
pKd: −log10 of the molar value.

Experiments:
Experiment in all cases: EMSA
Settings in all cases: ATP, 5 mM Mg2+, 150 mM NaCl; 25 mM Tris-Cl pH 7.6, 150 mM NaCl (also 50, 250, 300 mM), 7.5% glycerol, 1 mM beta-mercaptoethanol, 0.125% Igepal, 5 mM MgCl2, with or without 5 mM ATP; 5 nM …
[1] = test system: Rad50-D67N (Saccharomyces cerevisiae)
[2] = test system: Rad50-D67Y (Saccharomyces cerevisiae)
[3] = test system: Rad50-L1240F (Saccharomyces cerevisiae)
[4] = test system: Rad50-L1240F-I23V (Saccharomyces cerevisiae)

83-mer dsDNA oligonucleotide
pKd [1]: 6.70
pKd [2]: 6.49
pKd [3]: < 6.10
pKd [4]: < 6.10
